Measurements reported in the supplement of paper PMC12764529.
± gives the half width of the 95% confidence interval.

Key:
[1] = folding stability dG unfold from trypsin proteolysis; higher = more stable
Method in brief: (§1)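 How resistant each design was to proteolysis was captured as K50, inferred by Bayesian fitting of sequencing counts. Unfolding free energy was then derived relative to a sequence-predicted unfolded-state K50 and a shared folded-state K50, per protease or combined. Digestion used trypsin and chymotrypsin at 11 threefold-diluted concentrations plus a no-protease condition, on mini-proteins under 80 residues without cysteine in a PA-tagged cDNA display construct. Designs were kept only when AlphaFold2 dimer inter-PAE was above 15.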

[2] = folding stability dG unfold from chymotrypsin proteolysis; higher = more stable
Method in brief: as §1

[3] = folding stability dG unfold (combined trypsin and chymotrypsin); higher = more stable
Method in brief: as §1

| Sequence | folding stability dG unfold [1] [kcal/mol] | folding stability dG unfold [2] [kcal/mol] | folding stability dG unfold [3] [kcal/mol] |
| --- | --- | --- | --- |
| SAGGSAGGSAGSLPIPISSESVSSLPESPLSVVTVKLPDGKTVVITVDLNSSSSSVTPLPSAGGSAGGSAGG [r17_369_JUSTAS] | 1.61 ± 0.051 | 1.12 ± 0.032 | 1.37 ± 0.051 |
| SAGGSAGGSAGSLTFQLPNGTEITVTEITLEIKLPNGDVILIKITVDPEPPVTTEVTFVNSAGGSAGGSAGG [r11_804_JUSTAS] | 1.8 ± 0.066 | 1.37 ± 0.09 | 1.64 ± 0.13 |
| SAGGSAGGSAGSMAVDLKITISEDPSKPTYTGTVHLPDGTVVTVTSTGSPEELRARLEALLSAGGSAGGSAG [r3_143_JUSTAS] | 0.0769 ± 0.076 | 1.94 ± 0.044 | 1.68 ± 0.088 |
| SAGGSAGGSAGSMTITITETKKLPNGKTVVTTTKVEVRVFPNGGAIERKTLEVVTEELLGSAGGSAGGSAGG [r17_129_JUSTAS] | 1.34 ± 0.041 | 1.79 ± 0.053 | 1.58 ± 0.098 |
| SAGGSAGGSAGSMTLLATETFPETGKTVKYYKEGDTIYRVDYSDPKNPVVTELSPSDPLKSAGGSAGGSAGG [r17_145_JUSTAS] | 1.68 ± 0.09 | 2.29 ± 0.054 | 2.12 ± 0.086 |
| SAGGSAGGSAGSMTTTTTIVKLPNGTLVLETPTVTTTTFPETGTTTTTTTVTVTVLPGLSSAGGSAGGSAGG [r11_1008_JUSTAS] | 2.47 ± 0.076 | 1.3 ± 0.029 | 1.89 ± 0.065 |
| SAGGSAGGSAGSPIDTLVEEKTFTLPNGEKVIEATLKRPPGEPVHVVTIETKDSVIVELESAGGSAGGSAGG [r17_316_JUSTAS] | 0.513 ± 0.019 | 0.304 ± 0.086 | 0.462 ± 0.049 |
| SAGGSAGGSAGSPKGKPPKPTIEYEPITFEIPNPDGQGFELEISIIRMPGNGQEFIGISFSAGGSAGGSAGG [r11_1024_TrROS] | 0.611 ± 0.086 | 1.86 ± 0.069 | 1.58 ± 0.17 |
| SAGGSAGGSAGSPLAQAVIDELKAQGYTVEAVTVTQPPGNAPVVVVTVKKPDGTRVVIDLSAGGSAGGSAGG [r11_780_JUSTAS] | 2.74 ± 0.12 | 2.182 ± 0.016 | 2.39 ± 0.07 |
| SAGGSAGGSAGSPMSAEEVEERLREELRRELGPDYTVTVTVTEVLPEGVYVVSVTVTGPASAGGSAGGSAGG [r11_153_JUSTAS] | 2.49 ± 0.14 | 1.96 ± 0.028 | 2.21 ± 0.099 |
| SAGGSAGGSAGSPVSNPEGGTITNTETLPDGKTIVNTQTIDPSKPKTTTSTTVLDPNGNAVSAGGSAGGSAG [r3_433_JUSTAS] | 0.894 ± 0.053 | 1.55 ± 0.045 | 1.27 ± 0.13 |
| SAGGSAGGSAGSSLPVLETREEGDLVYLLFPETNLLLVVRRGPGEVEVPSAVRVPPDVPLSAGGSAGGSAGG [r17_30_JUSTAS] | 0.805 ± 0.022 | 1.03 ± 0.047 | 0.958 ± 0.063 |
| SAGGSAGGSAGSSMTSTVTEVSTLSNGGTVVTTTTTSYYPSTGTTTTSTTTTTFTDGKAVSAGGSAGGSAGG [r11_337_JUSTAS] | 1.08 ± 0.057 | 0.932 ± 0.027 | 1.05 ± 0.03 |
| SAGGSAGGSAGSSPSDLKVTLKVTLPDGTVLTVVMPAHATLDDFPADRPVTVTTLETKLESAGGSAGGSAGG [r11_997_JUSTAS] | 1.66 ± 0.084 | 0.656 ± 0.043 | 1.29 ± 0.12 |
| SAGGSAGGSAGSSTSTSSDGVLTTYFPDGTVTSTETKPDPSTGTVLAVSTTTTPLPPDTLSAGGSAGGSAGG [r11_497_JUSTAS] | 2.01 ± 0.044 | 0.572 ± 0.035 | 1.39 ± 0.032 |
| SAGGSAGGSAGSSVKTYTGKGKKITITKLDNGTYIVTTPDKTSTYPPSVSEEEVIKKALESAGGSAGGSAGG [r17_272_JUSTAS] | 0.506 ± 0.093 | -0.0797 ± 0.44 | 0.282 ± 0.17 |
| SAGGSAGGSAGSTALVETREFEDGTVVERVEVTLPNGEVLERTVVLTRDEAGNVVEEEVESAGGSAGGSAGG [r11_709_JUSTAS] | 0.224 ± 0.03 | 1.29 ± 0.021 | 0.958 ± 0.053 |
| SAGGSAGGSAGSTTTTITDPANGEAYEVTSDPNGGATITNPNSSQVYYKNADTITSVGASSAGGSAGGSAGG [r17_476_JUSTAS] | -0.263 ± 0.087 | -0.198 ± 0.49 | -0.0736 ± 0.19 |
| SAGGSAGGSAGSVLILVSREDLEALLEAGAEIVEVSDDYVLIRVEVPEVEVLDENGKRLDSAGGSAGGSAGG [r11_828_TrROS_Hall] | 1.9 ± 0.042 | 2.43 ± 0.056 | 2.21 ± 0.077 |
| SAGGSAGGSAGSVTVSSTTTTLTDSMRVITETFTSPDLVKVTFVPTSNPEDVTVTTLPSASAGGSAGGSAGG [r11_1046_JUSTAS] | -0.417 ± 0.093 | 1.04 ± 0.026 | 0.643 ± 0.092 |
| SAGGSAGGSAGTETKVLFIDENFESVEEAFQALRDLLPDNYKIEPLGVFPAKNKVVVLVTNPSAGGSAGGSA [r18_429_TrMRF] | 0.646 ± 0.056 | 0.189 ± 0.27 | 0.589 ± 0.15 |

| Sequence | folding stability dG unfold [1] [kcal/mol] | folding stability dG unfold [2] [kcal/mol] | folding stability dG unfold [3] [kcal/mol] |
| --- | --- | --- | --- |
| SAGGSAGGSAGTIKVNGKTVTITKNKKTGKYTITVTLKNGEKKTFVFPSKEDVEEALKALSAGGSAGGSAGG [r11_238_TrROS_Hall] | 3.27 ± 0.11 | 4.14 ± 0.08 | 3.94 ± 0.13 |
| SAGGSAGGSAGTITILFKDPEDAIDRIKEFAQKEGYKVKIDEIEYTPNGYVWIDIDIEPPSAGGSAGGSAGG [r11_304_TrROS] | 1.06 ± 0.045 | 1.49 ± 0.11 | 1.35 ± 0.099 |
| SAGGSAGGSAGTITINGKPITIEKLDNGYYKVKVNGKWYEIKPGEKIELPKGATVSIEKVSAGGSAGGSAGG [r11_147_TrROS_Hall] | 1.21 ± 0.069 | 2.6 ± 0.035 | 2.27 ± 0.14 |
| SAGGSAGGSAGTKTITLPNGLTLTIKPDEPVTITLVKVDPETNEIVEEKTITVYVKEDDLSAGGSAGGSAGG [r11_497_TrROS_Hall] | 1.08 ± 0.021 | 1.19 ± 0.061 | 1.2 ± 0.076 |
| SAGGSAGGSAGTLEALKNLKPGETVTLRVELRVERRYLDPNGKEHTEEVSTVTLELTLKPSAGGSAGGSAGG [r11_36_TrROS_Hall] | 3.22 ± 0.11 | 3.62 ± 0.054 | 3.49 ± 0.11 |
| SAGGSAGGSAGTLKLTLEVTVTRLYRLPDGSGSLVAETVRVRVEVELEVDELDEDGRLLLSAGGSAGGSAGG [r11_558_TrROS_Hall] | 3.08 ± 0.14 | 3.269 ± 0.024 | 3.18 ± 0.07 |
| SAGGSAGGSAGTVEEIAKYFAGEFPNYKVNIDVEWEGGKITSVDIEWEVVPPPPPESPGKSAGGSAGGSAGG [r11_197_TrROS] | 1.16 ± 0.12 | 0.309 ± 0.18 | 0.834 ± 0.22 |
| SAGGSAGGSAGTVIRVRDKNGKIVEISLEEAAELLGIPPSELTLEDIVKAFAEKVDSIEILSSAGGSAGGSA [r18_403_TrMRF] | 3.6 ± 0.1 | 2.3 ± 0.038 | 2.91 ± 0.064 |
| SAGGSAGGSAGVITIPLDDINDLPPGFKVKPNNNSMMIEDGDNPIHIPPGEPVQIEPPDESAGGSAGGSAGG [r17_91_TrROS] | 0.65 ± 0.1 | 0.346 ± 0.097 | 0.466 ± 0.22 |
| SAGGSAGGSAGVSFVVDALFVDPNTNEVYHGHIEFYDDGTAKITLTNQNGKTKTFTFPVLFSAGGSAGGSAG [r3_61_TrMRF] | 2.73 ± 0.14 | 3.25 ± 0.049 | 3.01 ± 0.19 |
| SAGGSAGGSAGVVDEVKAALEPQGLKVLSVTPGSSSVTVTVLDPKKGETTTFTIPLDDPLSAGGSAGGSAGG [r11_428_JUSTAS] | 1.02 ± 0.029 | 1.28 ± 0.088 | 1.22 ± 0.057 |
| SAGGSAGGSAGVVEPTVVSRAPDGTLTVVLNLPDGSTRTVTDPTNVTIGDRPINALTNASSAGGSAGGSAGG [r11_1017_JUSTAS] | -0.956 ± 0.45 | 0.508 ± 0.042 | 0.222 ± 0.14 |
| SAGGSAGGSAGVVLTEDGYAVATVTVTTTTVEYDEETGEWKETTTTTTETLTVVVPVGATSAGGSAGGSAGG [r17_527_TrROS_Hall] | 2.66 ± 0.2 | 1.6 ± 0.14 | 2.22 ± 0.098 |
| SAGGSAGGSAGVVRTDDGREVTVRRTVRVEVRLEITITASEEDREKAAAALERLLRELGLSAGGSAGGSAGG [r17_501_TrROS_Hall] | 2.68 ± 0.24 | 3.04 ± 0.086 | 2.86 ± 0.16 |
| SAGGSAGGSAGWFFVMDIKYEYRQTPDGKTEQEMSIEMKPIPPIPAEDLKEKLGLPPEDIASAGGSAGGSAG [r3_338_TrROS] | 0.937 ± 0.067 | 2.62 ± 0.11 | 1.94 ± 0.17 |
| SAGGSAGGSAGWFTIMFKADSPEKVEEIVDELAQENGLEVEIERNPGEPGYIMITIKPPPSAGGSAGGSAGG [r11_797_TrROS] | 1.47 ± 0.054 | 0.974 ± 0.21 | 1.27 ± 0.12 |
| SAGGSAGGSAGWLMIMFPIPPNADNVRIKWPDGPTQEHEMEPGSPVMIMIPPGNIKIEVDSAGGSAGGSAGG [r11_52_TrROS] | 1.13 ± 0.054 | 1.24 ± 0.091 | 1.21 ± 0.1 |
| SAGGSAGGSAGWRTHSHWVPPDNIPELAERIQDWGVKVEIERDPKDGWYRVTITIPDDFISAGGSAGGSAGG [r11_1043_TrROS] | 0.793 ± 0.058 | 1.38 ± 0.15 | 1.21 ± 0.14 |
| SAGGSAGGSAGYKPGEVVYIEVEDPETGKSLKVPVKVPENMTPEQAKKLAEEAAKKYREGSAGGSAGGSAGG [r11_355_TrMRF] | 1.57 ± 0.082 | 2.22 ± 0.095 | 2.02 ± 0.16 |
| SAGGSAGGSAGYVVIPLDIDAEPGATVEITLPNGEKIEAIVEDHPDGLRSVRVGDGVILVPGSAGGSAGGSA [r18_372_TrMRF] | 0.465 ± 0.032 | 0.827 ± 0.05 | 0.742 ± 0.087 |
| SAGGSAGGSAHKITITLPNGNPPEIVVEFETEEEAKEKAEEIIKKLEEEGYPKENLTVTIEKESAGGSAGGS [r12_295_JUSTAS] | 1.87 ± 0.076 | 1.76 ± 0.087 | 1.86 ± 0.12 |
